From US20250114450A1, “PHARMACEUTICAL COMBINATION CONTAINING ANTI-PD-1-ANTI-VEGFA BISPECIFIC ANTIBODY, AND USE THEREOF” (Akeso Biopharma, Inc., priority 2021, published 2025)

Legend:
[1] = tested on: SK-OV-3 human ovarian cancer cells; format: in vivo; conditions: VP101(hG1DM) 14 mg/kg weekly, olaparib 100 mg/kg daily, alone or in combination; FIG. 41
From the text: 39 days after grafting, the mice were intraperitoneally injected with 3 million activated PBMCs and randomly divided into 4 groups of 6 animals by tumor volume. The day of grouping was defined as D0, and dosing was started on the day of grouping D0. The regimen of the combination therapy group is as follows: the drugs were formulated separately and administered sequentially (no certain order or time interval was required, and one treatment should be given after the completed administration of the other). After the administration, the length and width of tumors in each group were measured, and the tumor volume was calculated.

[2] = tested on: MDA-MB-231 cells (human breast cancer cells); format: in vivo; conditions: VP101(hG1DM) 3 mg/kg weekly, olaparib 50 mg/kg daily, alone or in combination; FIG. 39
From the text: 23 days after grafting, the mice were randomly divided into 4 groups of 6 animals by tumor volume. The day of grouping was defined as DO, and olaparib dosing was started on day D0. […] The regimen of the combination therapy group is as follows: the drugs were formulated separately and administered sequentially (no certain order or time interval was required, and one treatment should be given after the completed administration of the other). After the administration, the length and width of tumors in each group were measured, and the tumor volume was calculated.

[3] = tested on: CHO-K1-PD1 cells overexpressing PD-1; experiment: ADCP activity assay, murine macrophages and CHO-K1-PD1 cells, flow cytometry; format: cell-based; conditions: murine macrophages + CHO-K1-PD1-CFSE cells, antibody 10, 1 and 0.1 μg/mL, 2 h, vs isotype control; FIG. 35
Description: The method is as follows:
The femoral bone marrow of C57 mice (purchased from Guangdong Medical Laboratory Animal Center) was first aseptically collected and lysed by erythrocyte lysis buffer on ice for 5 min. The lysis was terminated with DMEM complete medium (containing 10% FBS), and the lysate was centrifuged at 1000 rpm and washed twice. The cell pellet was resuspended in 10 mL of DMEM complete medium and M-CSF was added at a working concentration of 100 ng/mL. The cells were cultured for 7 days at 37° C. and 5% CO2 in a cell culture chamber for induction. Half of the medium was exchanged and M-CSF was added on Days 3 and 5. The induction of cells was completed on day 7. […] The supernatant was discarded and the cells were suspended in DMEM complete medium (containing 10% FBS) and counted. […] CHO-K1-PD1 cells were collected by conventional methods, centrifuged at 170×g for 5 min, resuspended, counted, analyzed for viability and washed once with PBS. […] The cells were counted, transferred to a 96-well plate and centrifuged at 1000×g for 5 min, and the supernatant was discarded. […]
Macrophages in the system were APC^+ positive, and macrophages involved in phagocytosis were APC and CFSE dual positive. The phagocytosis rate was determined as the ratio of the number of dual positive cells to the number of APC positive cells, and the antibody-mediated ADCP activity was evaluated. […]

FcγRI = FcγRI (Homo sapiens, UniProt P12314); experiment: Affinity constant assay to FcγRI (Fortebio Octet); conditions: N/A = no binding or extremely weak binding signal
Description: 1 μg/mL FcγRIa was immobilized on the HIS1K sensor for 50 s. The sensor was equilibrated in a buffer for 60 s, and the binding of the immobilized CD64 on the sensor to the antibodies at concentrations of 3.12-50 nM (two-fold dilution) was determined for 120 s. The antibody was dissociated in the buffer for 120 s. The sensor was refreshed 4 times in 10 mM glycine pH 1.5, each for 5 s. The detection temperature was 30° C. and the frequency was 0.3 Hz. The data were analyzed by 1:1 model fitting to obtain affinity constants.

FcγRIIIa_F158 = FcγRIIIa_F158 (Homo sapiens, UniProt P08637); experiment: Affinity constant assay to FcγRIIIa_F158 (Fortebio Octet); conditions: FcγRIIIa_F158 immobilized on HIS1K sensor, antibody 31.25-500 nM, 30° C., 1:1 model; N/A = no binding or extremely weak binding signal
Description: 5 μg/mL FcγRIIIa_F158 was immobilized on the HIS1K sensor for 120 s. The sensor was equilibrated in a buffer for 60 s, and the binding of the immobilized hFcGR3A(F158)-his on the sensor to the antibodies at concentrations of 31.25-500 nM (serial two-fold dilution) was determined for 60 s. The antibody was dissociated in the buffer for 60 s. The sensor was refreshed 4 times in 10 mM glycine pH 1.5, each for 5 s. The detection temperature was 30° C. and the frequency was 0.3 Hz. The data were analyzed by 1:1 model fitting to obtain affinity constants.

C1q = C1q (Homo sapiens, UniProt P02745+P02746+P02747); experiment: Affinity constant assay to C1q (Fortebio Octet); conditions: antibody immobilized on FAB2G sensor, C1q 0.625-10 nM, 30° C., 1:1 model; N/A = no binding or extremely weak binding signal
Description: 50 μg/mL antibody was immobilized on the FAB2G sensor at an immobilization height of about 2.0 nm. […] The antigen and antibody were dissociated in the buffer for 60 s. The sensor was refreshed 4 times in 10 mM glycine pH 1.7, each for 5 s. The shaking speed of the sample plate was 1000 rpm, the temperature was 30° C. and the frequency was 0.6 Hz. The data were analyzed by 1:1 model fitting to obtain affinity constants. The data acquisition software was Fortebio Data Acquisition 7.0, and the data analysis software was Fortebio Data Analysis 7.0.

FcγRIIa_H131 = target: T1, FcγRIIa_H131 (Homo sapiens, UniProt P12318); experiment: Affinity constant assay to FcγRIIa_H131 (Fortebio Octet); conditions: FcγRIIa_H131 immobilized on NTA sensor, antibody 12.5-200 nM, 30° C., 1:1 model; N/A = no binding or extremely weak binding signal
T1 sequence (P12318 34-217 limits assumed): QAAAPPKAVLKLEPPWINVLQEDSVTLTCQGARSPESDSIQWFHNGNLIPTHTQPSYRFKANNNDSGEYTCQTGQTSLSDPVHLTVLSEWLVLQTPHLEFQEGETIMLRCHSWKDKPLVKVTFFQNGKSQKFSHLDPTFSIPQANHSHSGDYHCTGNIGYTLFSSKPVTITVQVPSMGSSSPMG
Description: The antibody was dissociated in the buffer for 60 s. The sensor was refreshed in 10 mM glycine pH 1.7 and 10 nM nickel sulfate. […] The data were analyzed by 1:1 model fitting to obtain affinity constants.

Chain of FcγRI (P12314 16-374): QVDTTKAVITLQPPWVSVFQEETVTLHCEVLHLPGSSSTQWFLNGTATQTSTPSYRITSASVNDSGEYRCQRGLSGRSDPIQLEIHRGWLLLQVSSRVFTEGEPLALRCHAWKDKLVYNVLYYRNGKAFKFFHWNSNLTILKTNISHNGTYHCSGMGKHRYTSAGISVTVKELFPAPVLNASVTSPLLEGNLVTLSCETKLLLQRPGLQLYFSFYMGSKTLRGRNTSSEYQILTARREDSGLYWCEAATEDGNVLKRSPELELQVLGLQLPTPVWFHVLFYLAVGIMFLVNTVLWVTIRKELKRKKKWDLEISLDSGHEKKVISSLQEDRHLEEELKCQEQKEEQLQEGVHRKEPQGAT
Chain of FcγRIIIa_F158 (P08637 17-208 limits assumed): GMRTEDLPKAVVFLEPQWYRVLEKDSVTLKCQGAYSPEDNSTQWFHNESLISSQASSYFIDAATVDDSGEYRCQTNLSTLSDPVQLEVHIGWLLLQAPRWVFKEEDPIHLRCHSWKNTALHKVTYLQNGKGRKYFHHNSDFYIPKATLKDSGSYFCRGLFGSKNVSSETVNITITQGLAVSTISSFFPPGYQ
Chain of C1q (P02745 23-245): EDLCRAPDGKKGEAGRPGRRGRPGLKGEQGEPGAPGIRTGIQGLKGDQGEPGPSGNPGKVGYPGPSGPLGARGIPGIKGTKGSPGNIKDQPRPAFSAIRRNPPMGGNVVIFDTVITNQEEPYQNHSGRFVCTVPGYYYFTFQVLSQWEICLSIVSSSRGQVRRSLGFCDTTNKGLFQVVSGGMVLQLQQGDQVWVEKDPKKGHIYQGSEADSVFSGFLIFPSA
Chain of C1q (P02746 28-253): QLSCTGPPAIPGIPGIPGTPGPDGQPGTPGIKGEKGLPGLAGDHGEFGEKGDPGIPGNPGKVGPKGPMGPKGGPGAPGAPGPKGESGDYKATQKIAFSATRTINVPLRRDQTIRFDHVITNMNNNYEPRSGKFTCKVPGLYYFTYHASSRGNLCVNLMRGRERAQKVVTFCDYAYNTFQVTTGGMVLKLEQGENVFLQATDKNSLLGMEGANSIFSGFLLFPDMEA
Chain of C1q (P02747 29-245): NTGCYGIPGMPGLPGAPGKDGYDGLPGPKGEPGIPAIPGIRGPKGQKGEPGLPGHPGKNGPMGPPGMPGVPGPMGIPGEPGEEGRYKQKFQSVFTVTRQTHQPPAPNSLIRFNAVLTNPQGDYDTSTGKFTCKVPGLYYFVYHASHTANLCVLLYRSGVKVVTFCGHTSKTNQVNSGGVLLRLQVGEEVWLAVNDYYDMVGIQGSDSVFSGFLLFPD

Row | Kd (FcγRI; FcγRIa immobilized on HIS1K sensor, antibody 3.12-50 nM, 30° C., 1:1 model) [nM] | Rmax to FcγRI (FcγRI) | kdis to FcγRI (FcγRI) [s⁻¹] | Compound | tolerability / body weight of tumor-bearing mice [1] | tolerability / body weight of tumor-bearing mice [2] | ADCP activity (phagocytic rate, P %) [3] | KD (affinity constant) to FcγRIIIa_F158 (FcγRIIIa_F158) | KD (affinity constant) to C1q (C1q) | KD (affinity constant) to FcγRIIa_H131 (FcγRIIa_H131)
1 |  |  |  | O=C(c1cc(Cc2n[nH]c(=O)c3ccccc23)ccc1F)N1CCN(C(=O)C2CC2)CC1 [olaparib] | no effect on the body weight | no effect on the body weight |  |  |  | 
2 | 6.2 | 0.48-0.53 nm | 0.00432 | Nivolumab: approved PD-1 antibody (Opdivo) purchased from BMS as a reference antibody |  |  | significant ADCP effect | no binding or an extremely weak binding signal | no binding or an extremely weak binding signal | no binding or an extremely weak binding signal
